Response (% input of PML co-IP) data for 1 substance are collected here from article PMC10269885.

The target of this assay is PML protein (UniProt P29590). Description: co-immunoprecipitation (anti-HA IP, anti-PML immunoblot, densitometry). The note with it: HepaRG cells transfected with 10 μg plasmid; lysates prepared 48 h posttransfection; two independent experiments; parent: est. 7.8; read off a plot.
Sequence of UniProt P29590 (P29590 whole entry): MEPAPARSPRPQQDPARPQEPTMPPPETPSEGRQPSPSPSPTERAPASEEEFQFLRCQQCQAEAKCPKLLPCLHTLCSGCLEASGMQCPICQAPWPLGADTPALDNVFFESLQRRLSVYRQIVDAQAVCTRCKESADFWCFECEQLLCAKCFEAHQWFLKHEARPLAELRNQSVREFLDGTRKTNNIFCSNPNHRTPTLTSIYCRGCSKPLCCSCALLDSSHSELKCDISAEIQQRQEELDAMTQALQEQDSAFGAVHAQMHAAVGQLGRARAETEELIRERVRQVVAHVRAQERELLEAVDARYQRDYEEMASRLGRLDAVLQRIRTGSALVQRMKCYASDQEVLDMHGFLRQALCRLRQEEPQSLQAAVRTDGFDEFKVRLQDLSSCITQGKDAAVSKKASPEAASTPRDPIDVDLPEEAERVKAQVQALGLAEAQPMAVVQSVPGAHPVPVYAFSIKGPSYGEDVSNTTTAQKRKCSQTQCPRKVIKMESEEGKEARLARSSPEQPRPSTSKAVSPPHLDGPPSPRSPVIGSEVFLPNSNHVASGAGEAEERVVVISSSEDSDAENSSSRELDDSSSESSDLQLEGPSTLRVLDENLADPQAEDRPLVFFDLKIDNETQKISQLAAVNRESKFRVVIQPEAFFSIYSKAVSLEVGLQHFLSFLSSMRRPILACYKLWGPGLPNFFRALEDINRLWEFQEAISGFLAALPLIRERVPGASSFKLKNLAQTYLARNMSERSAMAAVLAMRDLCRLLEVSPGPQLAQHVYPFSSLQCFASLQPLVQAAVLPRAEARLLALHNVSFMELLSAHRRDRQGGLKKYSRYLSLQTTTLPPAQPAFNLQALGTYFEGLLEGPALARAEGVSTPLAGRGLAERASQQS

Regarding “HA-tagged wild-type HBV core protein (pCore-HA wt) K7R; K96R”, the response (% input of PML co-IP) was determined as 0.1.
